For four molecules, Kd results are on record in article PMC8465892, “CDR1 Composition Can Affect Nanobody Recombinant Expression Yields” (Biomolecules, 2021).

Where a chain is given by its changes, count along the chain named. Numbers in names are those of the source.

The target in this experiment is T1, Her2 ectodomain-Fc (UniProt P04626 23-652).
T1 construct: Her2 ectodomain
Kind of experiment: SPR; Biacore T200, 25 °C; Her2 ectodomain-Fc immobilized by amine-coupling on a CM5 chip at 1180 RU; nanobodies injected at 30 µL/min in 20 mM Hepes, 150 mM NaCl, 3 mM EDTA, 0.005% Tween 20, pH 7.4; eight concentrations between 250 and 3.5 nM; 1:1 Langmuir model. The conditions noted are these: both partners purified. In general terms: Surface plasmon resonance follows binding to a sensor surface in real time, without labels.

B1: A10 wt (VHH)
VHH: EVQLQASGGGFVQPGGSLRLSCAASGATSNISNMGWFRQAPGKEREFVSAISRAESRPLYYADSVKGRFTISRDNSKNTVYLQMNSLRAEDTATYYCAYMPLVRHKAYWGQGTQVTVSS
notes: anti-Her2 nanobody isolated by panning a synthetic library; also called anti-Her2 ectodomain nanobody A10; source: pET-derived vectors, produced as previously reported [17]
Regarding B1, binding was put at a Kd of 4.9 nM.

B2: A10 mutKG (VHH)
VHH: EVQLQASGGGFVQPGGSLRLSCAASGAGTSNISNMGWFRQAPGKEREFVSAISRAESRPLYYADSVKGRFTISRDNSKNTVYLQMNSLRAEDTATYYCAYMPLVRHKAYWGQGTQVTVSS
notes: A10 wt with a glycine inserted after A29 in CDR1 (G29a); also called G29a; source: gene synthetized by Twist Bioscience, pET-derived vectors, produced as previously reported [17]
In turn, B2 came in with a Kd of 34.7 nM.

B3: A10 mutKG.1 (VHH)
VHH: B2 VHH with A6E, F11L, S50A, R89K, A90P
notes: A10 mutKG (G29a) with five framework mutations printed as Q8E, F13L, S51A, R90K, A91P; source: gene synthetized by Doulix, pET-derived vectors, produced as previously reported [17]
In the case of B3, the affinity, expressed as Kd, was 9.9 nM.

B4: A10 mutG0 (VHH)
VHH: B2 VHH with G28T, T29S, S30G
notes: A10 wt with a glycine inserted after S31 in CDR1 (G31a); also called G31a; source: gene synthetized by Twist Bioscience, pET-derived vectors, produced as previously reported [17]
The molecule B4 registered a Kd of 23.5 nM.

What is called Kd is a measure of binding affinity in units of concentration. A low value points to tighter binding.
